The record followed here is article PMC6608616 (IUCrJ, 2019).

The experiment concerns the target Tryptophan synthase β subunit (TrpB) from Streptococcus pneumoniae (Streptococcus pneumoniae TIGR4, UniProt Q97P32 4-407, PLP covalently attached to Lys91). In words: crystal structure. The conditions noted are these: both partners purified.

B1: Tryptophan synthase α subunit (TrpA) from Streptococcus pneumoniae (enzyme)
chain: MPKTLTEKLNAIKAAGKGIFVPYIMAGDHEKGLDGLAETIHFLEDLGVSAIEVGIPFSDPVADGPVIEEAGLRSLAHGTSTQALVETLKTIETEIPLVIMTYFNPLFQYGVENFVKDLADTAVKGLIIPDLPHEHANFVEPFLANTDIALIPLVSLTTGIERQKELIEGAEGFIYAVAINGVTGKSGNYRADLDKHLAQLHQVADIPVLTGFGVSSQADLERFNAVSDGVIVGSKIVKALHQGEPIQDFIRQAVAYQK
As to B1, the binding result is given as “binds”.
